Starred links: 1 amine or outer side, 2 acyl side, 3 side chain; linkers in the order of their positions; H or OH if unused. Positions of bridges follow the written chain, without caps; N, C: chain ends. Non-standard residues stand in square brackets, D forms with d. Groups on a side chain read outwards from the residue. No end group written: not given here. Hhc = homohomocysteine, O=C([C@H](CCCS[*:3])N[*:1])[*:2]; εLys = N[C@@H](CCCCN[*:1])C(=O)[*:2]; Asu = N[C@@H](CCCCCC(=O)O)C(=O)O; hCys = N[C@@H](CCS)C(=O)O

Results on 13 molecules are retold here after patent publication US6479032 (DIATIDE, dated 2002).

Experiment [1] deals with T1, CT receptor of human breast tumor cell lines T-47D and MCF-7 (human, UniProt P30988 25-474).
T1 construct: whole, on cells; Native receptor; also called calcitonin receptor
T1 sequence (looked up): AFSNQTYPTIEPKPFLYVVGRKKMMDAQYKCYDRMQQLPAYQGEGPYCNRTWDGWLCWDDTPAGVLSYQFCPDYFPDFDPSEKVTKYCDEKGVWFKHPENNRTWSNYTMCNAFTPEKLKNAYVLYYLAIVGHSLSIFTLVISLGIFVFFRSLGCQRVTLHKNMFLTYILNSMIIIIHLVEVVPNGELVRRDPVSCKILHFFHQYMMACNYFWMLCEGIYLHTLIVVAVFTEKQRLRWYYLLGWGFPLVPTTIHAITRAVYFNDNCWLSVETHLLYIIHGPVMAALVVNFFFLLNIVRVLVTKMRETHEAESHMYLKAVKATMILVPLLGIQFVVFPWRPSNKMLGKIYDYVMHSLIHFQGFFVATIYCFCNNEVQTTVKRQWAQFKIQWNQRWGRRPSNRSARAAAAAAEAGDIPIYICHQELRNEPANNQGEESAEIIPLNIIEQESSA
The experiment is described as follows: displacement of 125I-salmon CT, whole T-47D cells. The text has this: (§1) Assays using microsomal membrane fractions of rat brain and T47D cells (obtained from the American Type Culture Collection, Rockville, Md., ATCC Accession No. HTB-133) were used to identify analogs with high affinity for the CT receptor according to the method of Fisher et al. (1977, *British J. Cancer* 35: 777–784). Briefly, tissue was minced and homogenized. The membranes were washed several times, assayed for protein content and used in the binding assay. […] Both uncomplexed and ReO complexed reagents were tested.
(§2) Similar experiments were performed with additional peptide reagents within the scope of the invention, using whole cells. Binding was determined as described above.

For experiment [2], the target named is T1, CT receptor of human breast tumor cell …. Kind of experiment: displacement of 125I-salmon CT, whole MCF-7 cells.
Source text: as §1, §2

Experiment [3] has the same target. The experiment is described as follows: displacement of 125I-salmon CT, T-47D cell membranes.
Source text: as §1, §2

B1: SNLST.Asu.VLGKLSC(CH2CO.(β-Dap)KCK.amide)ELHKLQTYPRTDVGAGTP.amide•ReO (peptide)
peptide: SNLST[Asu]VLGKLSC([CH2CO-βDap-Lys-Cys-Lys-NH2])ELHKLQTYPRTDVGAGTP-NH2
modifications: lactam N-6; also: ReO complex of chelator on Cys13
notes: Oxorhenium complex; also called Peptide 18 ReO complex
Take B1: the concentration for half-maximal inhibition (IC50) in experiment [1] is 0.55 nM; in experiment [2], 7 nM.

B2: CH2CO.SNLST.Hcy.VLGKLSC(CH2CO.(ε-K)GCE.amide)ELHKLQTYPRTNTGSGTP.amide•ReO (peptide)
peptide: {CH2CO}-SNLST[hCys]VLGKLSC([CH2CO-εLys-Gly-Cys-Glu-NH2])ELHKLQTYPRTNTGSGTP-NH2
modifications: thioether N-6; also: ReO complex of chelator on Cys13
notes: Oxorhenium complex; also called Peptide 10 ReO complex
As for B2, the IC50 in experiment [1] stood at 0.89 nM.

B3: CH2CO.SNLST.Hhc.VLGKLSC(CH2CO.(ε-K)GCE.amide)ELHKLQTYPRTNTGSGTP.amide•ReO (peptide)
peptide: {CH2CO}-SNLST[Hhc]VLGKLSC([CH2CO-εLys-Gly-Cys-Glu-NH2])ELHKLQTYPRTNTGSGTP-NH2
modifications: thioether N-6; also: ReO complex of chelator on Cys13
notes: Oxorhenium complex; also called Peptide 6 ReO complex
Consider B3, for which the IC50 turned out to be 0.33 nM in experiment [1] and 3.3 nM in experiment [2].

B4: CH2CO.SNLST.Cys.VLGKLSC(CH2CO.(ε-K)GCE.amide)ELHKLQTYPRTNTGSGTP.amide•ReO (peptide)
peptide: {CH2CO}-SNLSTCVLGKLSC([CH2CO-εLys-Gly-Cys-Glu-NH2])ELHKLQTYPRTNTGSGTP-NH2
modifications: thioether N-6; also: ReO complex
notes: Oxorhenium complex; also called Peptide 14 ReO complex
As to B4, the figures for the half-inhibitory concentration (IC50) in experiment [1] and in experiment [2] were 2.6 nM and 1.9 nM, respectively.

B5: CH2CO.SNLST.Hcy.VLGKLSC(CH2CO.(β-Dap)KCK.amide)ELHKLQTYPRTNTGSGTP.amide•ReO (peptide)
peptide: {CH2CO}-SNLST[hCys]VLGKLSC([CH2CO-βDap-Lys-Cys-Lys-NH2])ELHKLQTYPRTNTGSGTP-NH2
modifications: thioether N-6; also: ReO complex of chelator on Cys13
notes: Oxorhenium complex; also called Peptide 9 ReO complex
Turning to B5, the IC50 in experiment [1] was found to be 0.84 nM.

B6: CH2CO.SNLST.Hcy.VLGKLSC(CH2CO.GGCK.amide)ELHKLQTYPRTNTGSGTP.amide•ReO (peptide)
peptide: {CH2CO}-SNLST[hCys]VLGKLSC([CH2CO-Gly-Gly-Cys-Lys-NH2])ELHKLQTYPRTNTGSGTP-NH2
modifications: thioether N-6; also: ReO complex of chelator on Cys13
notes: Oxorhenium complex; also called Peptide 8 ReO complex
Take B6: the IC50 is 0.83 nM in experiment [1] and 4.8 nM in experiment [2].

B7: CSNLSTCVLGKLSQELHKLQTYPRTNTGSGTP-NH2 (salmon calcitonin) (ligand)
peptide: CSNLSTCVLGKLSQELHKLQTYPRTNTGSGTP-NH2
modifications: disulfide 1-7
notes: Unlabeled salmon calcitonin, bought (Sigma); also called salmon CT; sCT
In turn, B7 came in with an IC50 in experiment [2] of 12.3 nM. In other words, the double-digit nanomolar range.

B8: SNLST.Asu.VLGKLSC(CH2CO.(β-Dap)KCK.amide)ELHKLQTYPRTNTGSGTP.amide•ReO (peptide)
peptide: SNLST[Asu]VLGKLSC([CH2CO-βDap-Lys-Cys-Lys-NH2])ELHKLQTYPRTNTGSGTP-NH2
modifications: lactam N-6; also: ReO complex of chelator on Cys13
notes: Oxorhenium complex; also called Peptide 16 ReO complex
Turning to B8, the IC50 in experiment [1] was 2.7 nM; in experiment [2], 8 nM.

B9: CH2CO.SNLST.Cys.VLGKLSC(CH2CO.GGCK.amide)ELHKLQTYPRTNTGSGTP.amide•ReO (peptide)
peptide: {CH2CO}-SNLSTCVLGKLSC([CH2CO-Gly-Gly-Cys-Lys-NH2])ELHKLQTYPRTNTGSGTP-NH2
modifications: thioether N-6; also: ReO complex
notes: Oxorhenium complex; also called Peptide 12 ReO complex
Turning to B9, the IC50 stood at 1 nM in experiment [1] and 5.2 nM in experiment [2].

B10: CH2CO.SNLST.Cys.VLGKLSC(CH2CO.(β-Dap)KCK.amide)ELHKLQTYPRTNTGSGTP.amide•ReO (peptide)
peptide: {CH2CO}-SNLSTCVLGKLSC([CH2CO-βDap-Lys-Cys-Lys-NH2])ELHKLQTYPRTNTGSGTP-NH2
modifications: thioether N-6; also: ReO complex
notes: Oxorhenium complex; also called Peptide 13 ReO complex
For B10, the half-inhibitory concentration (IC50) in experiment [1] was determined as 2.9 nM. On to {CH2CO}-SNLST[Hhc]VLGKLSC([CH2CO-Gly-Gly-Cys-Lys-NH2])ELHKLQTYPRTNTGSGTP-NH2 (thioether N-6, also called Peptide 4) [CH2CO.SNLST.Hhc.VLGKLSC(CH2CO.GGCK.amide)ELHKLQTYPRTNTGSGTP.amide], for which the IC50 in experiment [3] was 2.6 nM. As to {CH2CO}-SNLST[Hhc]VLGKLSC([CH2CO-βDap-Lys-Cys-Lys-NH2])ELHKLQTYPRTNTGSGTP-NH2 (thioether N-6, also called Peptide 5) [CH2CO.SNLST.Hhc.VLGKLSC(CH2CO.(β-Dap)KCK.amide)ELHKLQTYPRTNTGSGTP.amide], the figures for the IC50 in experiment [1] and in experiment [2] were 0.42 nM and 5.8 nM, respectively.

In the case of {CH2CO}-SNLST[Hhc]VLGKLSCELHKLQTYPRTNTGSGTP-NH2 (thioether N-6, also called Peptide 3) [CH2CO.SNLST.Hhc.VLGKLSCELHKLQTYPRTNTGSGTP.amide], in experiment [3], the IC50 is 1.6 nM.
